Where no end group is shown, it is not given here.
B1: ClfA221-559 (other)
chain: VAADAPAAGTDITNQLTNVTVGIDSGTTVYPHQAGYVKLNYGFSVPNSAVKGDTFKITVPKELNLNGVTSTAKVPPIMAGDQVLANGVIDSDGNVIYTFTDYVNTKDDVKATLTMPAYIDPENVKKTGNVTLATGIGSTTANKTVLVDYEKYGKFYNLSIKGTIDQIDKTNNTYRQTIYVNPSGDNVIAPVLTGNLKPNTDSNALIDQQNTSIKVYKVDNAADLSESYFVNPENFEDVTNSVNITFPNPNQYKVEFNTPDDQITTPYIVVVNGHIDPNSKGDLALRSTLYGYNSNIIWRSMSWDNEVAFNNGSGSGDGIDKPVVPEQPDEPGEIEPIPE
notes: Recombinant, expressed in E. coli and purified by nickel chelate chromatography; the tag is not described; also called ClfA N2N3; ClfAN2N3

How the values were obtained:
[1] = target: ClfA221-559 (S. aureus strain Newman) (UniProt Q53653); test: SPR competition; 2 µM Tefibazumab with 1 µM ClfA221-559 over immobilized Fg (competitor: Fg)
[2] = target: ClfA221-559 (S. aureus strain Newman) (UniProt Q53653); test: SPR competition; Tefibazumab 0.1-2 µM with 1 µM ClfA221-559 over immobilized human Fg (competitor: Fg)
[3] = target: ClfA221-559 (S. aureus strain Newman) (UniProt Q53653); test: SPR competition: Tefibazumab mixed with 1 µM ClfA221-559, blocked ligand immobilized fibrinogen (Fg)
[4] = target: ClfA221-559 (S. aureus strain Newman) (UniProt Q53653); test: SPR competition; 2 µM Tefibazumab with 1 µM ClfA221-559 over immobilized D-fragment (competitor: D-fragment)
[5] = target: ClfA221-559 (S. aureus strain Newman) (UniProt Q53653); test: SPR competition: Tefibazumab mixed with 1 µM ClfA221-559, blocked ligand immobilized Fg D-fragment (Fg-D)
[6] = target: ClfA221-559 (S. aureus strain Newman) (UniProt Q53653); test: SPR competition; Tefibazumab 0.1-2 µM with 1 µM ClfA221-559 over immobilized Fg D-fragment (competitor: D-fragment)
[7] = target: ClfA221-559 (S. aureus strain Newman) (UniProt Q53653); test: SPR competition; 2 µM Tefibazumab with 1 µM ClfA221-559 over captured GST-tagged Fg γ-peptide (competitor: GST-γ-peptide)
[8] = target: ClfA221-559 (S. aureus strain Newman) (UniProt Q53653); test: SPR competition: Tefibazumab (0.1 to 2 µM) mixed with 1 µM ClfA221-559, binding of ClfA221-559 to immobilized fibrinogen (Fg) is blocked
[9] = target: ClfA221-559 (S. aureus strain Newman) (UniProt Q53653); test: SPR competition: Tefibazumab (0.1 to 2 µM) mixed with 1 µM ClfA221-559, binding of ClfA221-559 to immobilized Fg D-fragment (Fg-D) is blocked
human fibrinogen [10] = target: T1, human fibrinogen (human, UniProt P02671 20-629; P02675 31-491; P02679 27-437); test: SPR; immobilized Fg against GST-γ-peptide
T1 construct: also called Fg; intact Fg
T1 sequence 1: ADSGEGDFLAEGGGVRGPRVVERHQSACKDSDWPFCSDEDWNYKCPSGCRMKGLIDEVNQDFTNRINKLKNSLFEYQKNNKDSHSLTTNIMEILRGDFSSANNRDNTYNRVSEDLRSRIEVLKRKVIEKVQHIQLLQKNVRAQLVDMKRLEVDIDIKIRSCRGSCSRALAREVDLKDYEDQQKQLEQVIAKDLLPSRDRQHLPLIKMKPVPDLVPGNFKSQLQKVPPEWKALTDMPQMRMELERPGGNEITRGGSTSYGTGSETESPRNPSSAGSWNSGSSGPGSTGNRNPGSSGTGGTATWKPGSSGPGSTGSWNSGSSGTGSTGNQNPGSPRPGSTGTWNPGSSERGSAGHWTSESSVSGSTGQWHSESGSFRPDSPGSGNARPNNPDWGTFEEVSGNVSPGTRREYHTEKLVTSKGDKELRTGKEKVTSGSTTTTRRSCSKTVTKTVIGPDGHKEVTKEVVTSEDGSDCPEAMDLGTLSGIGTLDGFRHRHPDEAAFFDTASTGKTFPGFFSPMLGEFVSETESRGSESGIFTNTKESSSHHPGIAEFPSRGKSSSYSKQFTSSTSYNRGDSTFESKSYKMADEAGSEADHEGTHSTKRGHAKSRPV
T1 sequence 2: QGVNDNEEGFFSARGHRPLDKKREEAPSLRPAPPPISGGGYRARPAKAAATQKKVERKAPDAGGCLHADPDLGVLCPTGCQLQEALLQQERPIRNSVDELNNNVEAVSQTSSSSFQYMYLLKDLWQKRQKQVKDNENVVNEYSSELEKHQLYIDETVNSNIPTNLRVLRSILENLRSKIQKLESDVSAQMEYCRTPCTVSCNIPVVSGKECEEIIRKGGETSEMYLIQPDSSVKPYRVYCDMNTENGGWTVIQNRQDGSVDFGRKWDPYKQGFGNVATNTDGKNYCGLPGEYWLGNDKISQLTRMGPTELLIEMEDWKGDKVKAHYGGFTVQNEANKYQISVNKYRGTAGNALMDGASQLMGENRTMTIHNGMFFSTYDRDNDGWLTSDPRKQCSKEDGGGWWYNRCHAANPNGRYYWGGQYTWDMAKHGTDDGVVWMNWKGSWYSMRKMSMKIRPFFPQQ
T1 sequence 3: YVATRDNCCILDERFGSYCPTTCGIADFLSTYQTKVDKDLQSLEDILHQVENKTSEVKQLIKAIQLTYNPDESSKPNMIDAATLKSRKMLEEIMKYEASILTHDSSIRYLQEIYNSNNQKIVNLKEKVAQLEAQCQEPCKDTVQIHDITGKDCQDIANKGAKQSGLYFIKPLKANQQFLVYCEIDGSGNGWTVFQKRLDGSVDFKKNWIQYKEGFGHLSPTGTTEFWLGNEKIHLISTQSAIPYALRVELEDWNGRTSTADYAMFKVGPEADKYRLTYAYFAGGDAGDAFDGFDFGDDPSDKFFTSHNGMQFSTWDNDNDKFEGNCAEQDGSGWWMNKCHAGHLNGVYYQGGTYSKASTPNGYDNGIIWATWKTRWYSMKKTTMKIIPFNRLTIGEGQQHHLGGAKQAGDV

Fg D-fragment [11] = target: T2, Fg D-fragment (UniProt P02671 130-216; P02675 164-491; P02679 114-437); test: SPR; immobilized Fg D-fragment against GST-γ-peptide
T2 construct: domain: D-fragment; also called D-domain
T2 sequence 1: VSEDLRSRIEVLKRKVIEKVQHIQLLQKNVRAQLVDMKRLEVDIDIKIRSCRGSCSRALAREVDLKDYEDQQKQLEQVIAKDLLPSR
T2 sequence 2: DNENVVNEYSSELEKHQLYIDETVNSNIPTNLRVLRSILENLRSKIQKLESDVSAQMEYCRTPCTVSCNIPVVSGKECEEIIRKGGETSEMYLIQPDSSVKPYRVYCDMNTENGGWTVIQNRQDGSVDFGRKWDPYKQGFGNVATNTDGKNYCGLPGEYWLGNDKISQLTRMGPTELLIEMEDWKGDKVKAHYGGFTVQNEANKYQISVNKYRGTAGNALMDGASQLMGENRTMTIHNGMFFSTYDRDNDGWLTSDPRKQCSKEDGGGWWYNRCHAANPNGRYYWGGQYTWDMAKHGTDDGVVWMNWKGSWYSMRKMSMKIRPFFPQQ
T2 sequence 3: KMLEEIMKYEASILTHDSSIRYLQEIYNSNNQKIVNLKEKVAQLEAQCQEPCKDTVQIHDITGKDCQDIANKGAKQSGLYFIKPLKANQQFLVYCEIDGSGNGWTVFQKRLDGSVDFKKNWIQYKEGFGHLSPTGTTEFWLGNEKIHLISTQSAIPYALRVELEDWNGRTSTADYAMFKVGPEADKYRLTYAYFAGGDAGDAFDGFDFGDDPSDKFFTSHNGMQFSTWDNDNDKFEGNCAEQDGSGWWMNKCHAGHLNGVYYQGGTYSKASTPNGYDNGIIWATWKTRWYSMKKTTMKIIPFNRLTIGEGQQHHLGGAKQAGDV

human fibrinogen [12] = target: T1, human fibrinogen; test: SPR; ClfA221-559 over immobilized intact Fg; immobilized intact Fg
Fg D-fragment [13] = target: T2, Fg D-fragment; test: SPR; ClfA221-559 over immobilized Fg D-fragment; immobilized Fg D-fragment
ClfA221-559 = target: B1; test: SPR (Biacore), drawn table Ligand/analyte: GST-γ-peptide on the surface, ClfA221-559 as analyte
ClfA370-559 = target: T3, ClfA370-559 (S. aureus, UniProt Q53653 370-559); test: SPR (Biacore), drawn table Ligand/analyte: GST-γ-peptide on the surface, ClfA N3 domain (ClfA370-559) as analyte
T3 construct: also called recombinant form of N3
T3 sequence: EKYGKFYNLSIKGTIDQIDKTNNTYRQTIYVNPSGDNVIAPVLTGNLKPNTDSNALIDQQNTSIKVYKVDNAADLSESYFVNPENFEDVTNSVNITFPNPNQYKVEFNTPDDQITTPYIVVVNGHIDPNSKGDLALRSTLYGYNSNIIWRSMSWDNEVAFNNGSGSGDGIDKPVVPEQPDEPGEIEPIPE

human fibrinogen [14] = target: T1, human fibrinogen; test: ITC; full-length Fg against the synthetic C-terminal γ-chain peptide
human fibrinogen [15] = target: T1, human fibrinogen; test: ITC, ClfACC titrated into fibrinogen in the cell; OneSites fit box
human fibrinogen [16] = target: T1, human fibrinogen; test: ITC, ClfACC titrated into fibrinogen in the cell; OneSites fit box, unit not given
human fibrinogen [17] = target: T1, human fibrinogen; test: ITC; full-length Fg in the cell, ClfACC titrated in, 30 °C; full-length Fg in the cell, ClfACC titrated in

Tefibazumab (antibody)
percent inhibition [1]: 60% | IC50 [2]: 30 nM | IC50 (read off the curve) [3]: 300 nM | percent inhibition [4]: 70% | IC50 (read off the curve) [5]: 300 nM | IC50 [6]: 30 nM | percent inhibition [7]: 25% | IC50 [8]: 30.2 nM | IC50 [9]: 29.6 nM

B1
fold difference in KD against the γ-peptide (human fibrinogen [10]): 4 to 7 fold | fold difference in KD against the γ-peptide (Fg D-fragment [11]): 4 to 7 fold | Kd (human fibrinogen [12]): 980 nM | Kd (Fg D-fragment [13]): 680 nM

B2: GST-tagged Fg γ-peptide (other)
chain: {GST}-GEGQQHHLGGAKQAGDV
notes: domain: γ-peptide (carboxy terminal of the γ-chain); 'expressed and purified as described earlier'; also called GST-γ-peptide; GST tagged γ-peptide; not shown: GST tag
Kd (ClfA221-559): 4300 nM | Kd (ClfA370-559): 54000 nM

B3: ClfACC (other)
chain: GTDITNQLTNVTVGIDSGTTVYPHQAGYVKLNYGFSVPNSAVKGDTFKITVPKELNLNGVTSTAKVPPIMAGDQVLANGVIDSDGNVIYTFTDYVNTKCDVKATLTMPAYIDPENVKKTGNVTLATGIGSTTANKTVLVDYEKYGKFYNLSIKGTIDQIDKTNNTYRQTIYVNPSGDNVIAPVLTGNLKPNTDSNALIDQQNTSIKVYKVDNAADLSESYFVNPENFEDVTNSVNITFPNPNQYKVEFNTPDDQITTPYIVVVNGHIDPNSKGDLALRSTLYGYNSNIIWRSMSWDNEVAFNNGSGSGDGIDCPVVP
modifications: engineered disulfide bond between C327 and C541
notes: also called disulfide bond-closed ClfACC; closed form of ClfA N2N3
fold higher affinity against the γ-chain peptide (human fibrinogen [14]): 30 fold | N (human fibrinogen [15]): 1.57 | ΔH (human fibrinogen [16]): -13300 | Kd (human fibrinogen [17]): 300 nM

Reference: patent publication US20180369355A1 (TEXAS A AND M UNIVERSITY SYSTEM, published 2018)
